Measured values from the supplement of paper PMC10724198.
± gives the standard deviation of the averaged measurements.

System: Saccharomyces cerevisiae
Assay: protein stability index of tFT-peptide fusion (C-terminal peptide) (PSI (0-1 scale)); higher = more stable (slower turnover)
Conditions: genetic background: wild type; temperature: 30 C
Description: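 MPS profiling in S. cerevisiae of the yeast C-terminome library: the last 12 aa of each annotated ORF are fused to the C-terminus of a sfGFP-mCherry timer, after a GGGS linker. Cells are FACS-sorted into 8 mCherry/sfGFP bins and deep-sequenced. PSI runs from 0 (unstable) to 1 (stable); wild type and das1Δ backgrounds, two technical replicates each.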

Sequence	protein stability index
GVETIAKCIDLL [CAR2 C-terminal 12 aa]	0.698 ± 0.011
GVIIELGSWSAW [YDR415C C-terminal 12 aa]	0.71701 ± 0.00054
GWLQDKHFEKYL [YOR338W C-terminal 12 aa]	0.447 ± 0.03
HAKGSGNTMNRG [TAP42 C-terminal 12 aa]	0.664 ± 0.015
HCQPQEILVLRQ [PEX10 C-terminal 12 aa]	0.7 ± 0.013
HDRSESDSDLDI [PLP1 C-terminal 12 aa]	0.677 ± 0.015
HELSKDFSNLGI [NAM7 C-terminal 12 aa]	0.683 ± 0.038
HGNWSRVVTDLN [BAT2 C-terminal 12 aa]	0.722 ± 0.1
HLENELKDQQEL [ATM1 C-terminal 12 aa]	0.715 ± 0.017
HLPKATSLPYEK [YER097W C-terminal 12 aa]	0.679 ± 0.055
HPWFAEYYHHAS [PHO85 C-terminal 12 aa]	0.7174 ± 0.0026
HRSFFKDIIPEL [KIN82 C-terminal 12 aa]	0.693 ± 0.022
IAEGKSVGIIGA [HXK2 C-terminal 12 aa]	0.682 ± 0.018
IAKEHDKIPKFL [INA22 C-terminal 12 aa]	0.672 ± 0.06
IASKNNWLPLQW [SIW14 C-terminal 12 aa]	0.732 ± 0.045
IDDEDVVSLFAK [RBG2 C-terminal 12 aa]	0.732 ± 0.057
IEEAASSLGFKR [PES4 C-terminal 12 aa]	0.701 ± 0.023
IEELTDTLNSTI [PEX29 C-terminal 12 aa]	0.698 ± 0.024
IEQSFGVIEYFP [SCW11 C-terminal 12 aa]	0.71 ± 0.011
IFHELKRQNSKN [RGD2 C-terminal 12 aa]	0.717 ± 0.052
IFVYPLFLLSTF [YEL053W-A C-terminal 12 aa]	0.335 ± 0.0099

Sequence	protein stability index
IGTLIPEPGVNV [DAP1 C-terminal 12 aa]	0.676 ± 0.032
IHCRSQNCLSLS [VBA4 C-terminal 12 aa]	0.681 ± 0.016
IHKENKEFYLIL [YGL118C C-terminal 12 aa]	0.6731 ± 0.00094
IIDELEQIALQQ [BRE2 C-terminal 12 aa]	0.748 ± 0.04
IIDELQKCHMQE [CDC27 C-terminal 12 aa]	0.6895 ± 0.0016
IKCKMPWSSPRQ [YOR238W C-terminal 12 aa]	0.744 ± 0.032
ILDLDPRTEAYC [YGL260W C-terminal 12 aa]	0.691 ± 0.013
ILDMFAKRWILS [IZH3 C-terminal 12 aa]	0.552 ± 0.043
ILDSFEEWSDEE [HDA1 C-terminal 12 aa]	0.688 ± 0.0073
ILFSFFCNLVAK [VTC4 C-terminal 12 aa]	0.4997 ± 0.0011
ILKKNPDYREEE [RPN1 C-terminal 12 aa]	0.7029 ± 0.0058
ILTLVETLSEQE [VMA22 C-terminal 12 aa]	0.7049 ± 0.0056
INDKYKSNRTDS [ATG2 C-terminal 12 aa]	0.7162 ± 0.00084
INGIIDPSELSD [ALO1 C-terminal 12 aa]	0.68 ± 0.0073
INIVVDMLASQH [RMD1 C-terminal 12 aa]	0.591 ± 0.011
IPLVISYCISEE [ATX2 C-terminal 12 aa]	0.596 ± 0.024
IPNIFGKFTVTS [YKL091C C-terminal 12 aa]	0.683 ± 0.013
IQAMLKSLDSLK [SNL1 C-terminal 12 aa]	0.66 ± 0.03
IQEDSPVMDNNT [FAP1 C-terminal 12 aa]	0.674 ± 0.036
IQVVKSKVLNIE [YDR248C C-terminal 12 aa]	0.653 ± 0.016
IRSLPLPFPHMD [MIG1 C-terminal 12 aa]	0.757 ± 0.053

Sequence	protein stability index
IVNVMFCLVRGF [DSC3 C-terminal 12 aa]	0.404 ± 0.03
IVTKMDLLSYLA [CYS4 C-terminal 12 aa]	0.478 ± 0.0082
IWCAPTVDARPI [NIT1 C-terminal 12 aa]	0.6998 ± 0.0015
IYENDPNTKKNN [ERG3 C-terminal 12 aa]	0.72 ± 0.049
KAASLSLKSTKY [PRP5 C-terminal 12 aa]	0.673 ± 0.013
KADIACAGKQLI [YHL042W C-terminal 12 aa]	0.698 ± 0.0097
KADNWKCKIQSA [GDA1 C-terminal 12 aa]	0.641 ± 0.011
KAERCQYRLVTA [YCR025C C-terminal 12 aa]	0.508 ± 0.012
KAFFISKTLPCI [YLR112W C-terminal 12 aa]	0.766 ± 0.07
KAMILTSYRYLE [CLP1 C-terminal 12 aa]	0.677 ± 0.056
KCVNCGHRWKEN [RPC11 C-terminal 12 aa]	0.616 ± 0.02
KDFQVNKEIKPY [SIR4 C-terminal 12 aa]	0.7378 ± 0.00099
KDGDVVYDNGFM [CHS7 C-terminal 12 aa]	0.692 ± 0.01
KDINLSEGNENE [URA8 C-terminal 12 aa]	0.666 ± 0.067
KDKKKDKSNSSI [HMO1 C-terminal 12 aa]	0.691 ± 0.052
KDSIKLLDKARL [MSS2 C-terminal 12 aa]	0.781 ± 0.085
KDVIEEALSRFG [UTP7 C-terminal 12 aa]	0.677 ± 0.027
KEKSESLQEEIN [YET3 C-terminal 12 aa]	0.71 ± 0.032
KFDKALYKKTTG [YMR206W C-terminal 12 aa]	0.669 ± 0.03
KFKIQNILNSTF [SIP4 C-terminal 12 aa]	0.711 ± 0.0095
KGLFWDPACVIA [MFA2 C-terminal 12 aa]	0.728 ± 0.029

Sequence	protein stability index
KGLQTVVVEEDA [RPL31A C-terminal 12 aa]	0.683 ± 0.0082
KHASELSSNSKF [CTA1 C-terminal 12 aa]	0.681 ± 0.048
KHDVLSTLPHNN [SKO1 C-terminal 12 aa]	0.687 ± 0.011
KHKNILLFNNNT [YAL068W-A C-terminal 12 aa]	0.686 ± 0.017
KHVMMDMQQPSQ [MRPS17 C-terminal 12 aa]	0.674 ± 0.027
KILVFDKNLMNR [YLR154W-E C-terminal 12 aa]	0.688 ± 0.019
KKDFNEDDSLFG [VPS55 C-terminal 12 aa]	0.694 ± 0.0072
KKKRNKNKKAGK [ETP1 C-terminal 12 aa]	0.698 ± 0.014
KKKSKSSKKVKV [ESF1 C-terminal 12 aa]	0.653 ± 0.0087
KKQLLPSKTVDN [HED1 C-terminal 12 aa]	0.66 ± 0.04
KKRDPITGEVFE [ERG5 C-terminal 12 aa]	0.667 ± 0.016
KLDVDDEENEGF [MRD1 C-terminal 12 aa]	0.653 ± 0.011
KLENESLPNLSG [TRI1 C-terminal 12 aa]	0.685 ± 0.016
KNEELSKKHFSK [ROK1 C-terminal 12 aa]	0.74 ± 0.12
KPPKNKYKVVRR [SEC65 C-terminal 12 aa]	0.681 ± 0.0014
KQKDKEKNALLL [YBR113W C-terminal 12 aa]	0.6802 ± 0.0029
KRKRRKVRARSK [RPL41A C-terminal 12 aa]	0.764 ± 0.066
KSASSSPAPKDT [TRM10 C-terminal 12 aa]	0.708 ± 0.011
KTDPNEPANDYR [DLD1 C-terminal 12 aa]	0.686 ± 0.032
